pKd: −log10 of the molar value.
Tests used:
[1] = target: HLA-C*06:02; experiment: IEDB peptide-MHC binding, purified MHC/direct/fluorescence; filed as Kd, often an IC50 or EC50 that approximates it; ≥ and ≤ were set here for values at or beyond the usual limits of such assays; conditions: source organism: Shigella boydii CDC 3083-94
[2] = target: HLA-A*02:01; experiment: IEDB peptide-MHC binding, purified MHC/competitive/fluorescence; filed as Kd, often an IC50 or EC50 that approximates it; ≥ and ≤ were set here for values at or beyond the usual limits of such assays; conditions: source organism: Shigella boydii CDC 3083-94
[3] = target: HLA-A*02:19; experiment: as above; conditions: source organism: Shigella boydii CDC 3083-94
[4] = target: HLA-A*03:19; experiment: as above; conditions: source organism: Shigella boydii CDC 3083-94
[5] = target: HLA-A*26:01; experiment: as above; conditions: source organism: Shigella boydii CDC 3083-94
[6] = target: HLA-A*29:02; experiment: as above; conditions: source organism: Shigella boydii CDC 3083-94
[7] = target: HLA-A*32:07; experiment: as above; conditions: source organism: Shigella boydii CDC 3083-94
[8] = target: HLA-A*32:15; experiment: as above; conditions: source organism: Shigella boydii CDC 3083-94
[9] = target: HLA-B*15:42; experiment: as above
[10] = target: HLA-B*18:01; experiment: as above; conditions: source organism: Shigella boydii CDC 3083-94
[11] = target: HLA-B*27:03; experiment: as above; conditions: source organism: Shigella boydii CDC 3083-94
[12] = target: HLA-B*27:20; experiment: as above; conditions: source organism: Shigella boydii CDC 3083-94
[13] = target: HLA-B*40:13; experiment: as above; conditions: source organism: Shigella boydii CDC 3083-94
[14] = target: HLA-B*45:06; experiment: as above
[15] = target: HLA-B*51:01; experiment: as above
[16] = target: HLA-B*57:01; experiment: as above; conditions: source organism: Shigella boydii CDC 3083-94
[17] = target: HLA-B*83:01; experiment: as above
[18] = target: HLA-C*14:02; experiment: as above
[19] = target: HLA-A*03:01; experiment: IEDB peptide-MHC binding, purified MHC/direct/fluorescence; filed as Kd, often an IC50 or EC50 that approximates it; ≥ and ≤ were set here for values at or beyond the usual limits of such assays; conditions: source organism: Giardia lamblia ATCC 50803
[20] = target: HLA-A*23:01; experiment: as above; conditions: source organism: Giardia lamblia ATCC 50803
[21] = target: HLA-A*24:03; experiment: as above; conditions: source organism: Giardia lamblia ATCC 50803
[22] = target: HLA-A*29:02; experiment: as above; conditions: source organism: Giardia lamblia ATCC 50803
[23] = target: HLA-A*66:01; experiment: as above; conditions: source organism: Giardia lamblia ATCC 50803
[24] = target: HLA-A*68:02; experiment: as above; conditions: source organism: Giardia lamblia ATCC 50803
[25] = target: HLA-B*18:01; experiment: as above; conditions: source organism: Giardia lamblia ATCC 50803
[26] = target: HLA-B*27:03; experiment: as above; conditions: source organism: Giardia lamblia ATCC 50803
[27] = target: HLA-B*57:01; experiment: as above; conditions: source organism: Giardia lamblia ATCC 50803
[28] = target: HLA-C*05:01; experiment: as above; conditions: source organism: Giardia lamblia ATCC 50803
[29] = target: HLA-C*12:03; experiment: as above; conditions: source organism: Giardia lamblia ATCC 50803
[30] = target: HLA-A*01:01; experiment: IEDB peptide-MHC binding, purified MHC/competitive/fluorescence; filed as Kd, often an IC50 or EC50 that approximates it; ≥ and ≤ were set here for values at or beyond the usual limits of such assays; conditions: source organism: Giardia lamblia ATCC 50803
[31] = target: HLA-A*11:01; experiment: as above; conditions: source organism: Giardia lamblia ATCC 50803
[32] = target: HLA-A*30:02; experiment: as above; conditions: source organism: Giardia lamblia ATCC 50803
[33] = target: HLA-A*68:23; experiment: as above; conditions: source organism: Giardia lamblia ATCC 50803
[34] = target: HLA-B*07:02; experiment: as above; conditions: source organism: Giardia lamblia ATCC 50803
[35] = target: HLA-B*08:01; experiment: as above; conditions: source organism: Giardia lamblia ATCC 50803
[36] = target: HLA-B*14:02; experiment: as above; conditions: source organism: Giardia lamblia ATCC 50803
[37] = target: HLA-B*27:05; experiment: as above; conditions: source organism: Giardia lamblia ATCC 50803
[38] = target: HLA-B*40:01; experiment: as above; conditions: source organism: Giardia lamblia ATCC 50803
[39] = target: HLA-B*44:02; experiment: as above; conditions: source organism: Giardia lamblia ATCC 50803
[40] = target: HLA-B*53:01; experiment: as above; conditions: source organism: Giardia lamblia ATCC 50803
[41] = target: HLA-B*58:01; experiment: as above; conditions: source organism: Giardia lamblia ATCC 50803
[42] = target: HLA-B*14:02; experiment: IEDB peptide-MHC binding, purified MHC/direct/fluorescence; filed as Kd, often an IC50 or EC50 that approximates it; ≥ and ≤ were set here for values at or beyond the usual limits of such assays; conditions: source organism: Homo sapiens
[43] = source organism: Shigella boydii CDC 3083-94
[44] = source organism: Giardia lamblia ATCC 50803

With GMMRWCMPV the pKd [1] was at most 4.70, the pKd [2] was at least 10.00 and the pKd [3] was 9.70. It also gave a pKd [4] of 5.95, a pKd [5] of at most 4.70 and a pKd [6] of 7.29. The pKd [7] was 8.28, the pKd [8] was 6.09 and the pKd [9, 43] was 4.77. For the same sequence, the pKd [10] was at most 4.70, the pKd [11] was at most 4.70 and the pKd [12] was 9.40. It also gave a pKd [13] of 6.70, a pKd [14, 43] of 7.16 and a pKd [15, 43] of at most 4.70. For the same sequence, the pKd [16] was at most 4.70, the pKd [17, 43] was at most 5.30 and the pKd [18, 43] was 7.03.

MTYLDGHPV gave a pKd [19] of at most 4.70, a pKd [20] of at most 4.70 and a pKd [21] of at most 4.70. For the same sequence, the pKd [22] was 8.22, the pKd [23] was 6.87 and the pKd [24] was at least 9.00. It also gave a pKd [25] of at most 4.70, a pKd [26] of at most 4.70 and a pKd [27] of at most 4.70. It also gave a pKd [28] of at most 4.70, a pKd [29] of 6.82 and a pKd [30] of at most 5.30. For the same sequence, the pKd [31] was 6.86, the pKd [32] was at most 5.30 and the pKd [33] was at least 10.00. It also gave a pKd [34] of at most 5.30, a pKd [35] of at most 5.30 and a pKd [36] of at most 5.30. It also gave a pKd [9, 44] of at most 5.30, a pKd [37] of at most 5.30 and a pKd [38] of at most 5.30. It also gave a pKd [39] of at most 5.30, a pKd [14, 44] of at most 5.30 and a pKd [15, 44] of at most 5.30. The pKd [40] was at most 5.30, the pKd [41] was at most 5.30 and the pKd [17, 44] was at most 5.30. For the same sequence, the pKd [18, 44] was 7.52.

NEVLHQEL was tested, and the pKd [42] was 6.53.

Source: the Immune Epitope Database (IEDB)
